Experimental findings from article PMC1807944 are described below.

Where two headings read alike, the source gives them in different places.

Holding throughout (assay): SAXS titration
In series [1] the target is T1, HIV-1 integrase (IN), monomer E (HIV-1, UniProt P04585 1148-1435).
Series [2] addresses T1, HIV-1 integrase (IN), monomer E. The source holds these as a separate data set.
The target is the same in series [3]. The source holds these as a separate data set.

One may read the Kd as the free concentration of one partner at which half of the binding sites on the other are occupied at equilibrium, for simple one-to-one binding. A higher Kd goes with lower affinity. Molecule AAAAA (ssDNA) [ss A5] displayed a Kd in series [1] of 2600 ± 400 nM. Take GCAGT (ssDNA) [ss GCAGT]: the Kd in series [1] worked out at 7100 ± 700 nM.

Molecule GTGTGGAAAATCTCTAGCA (ssDNA) [ss 19-CA] came in with a Kd in series [2] of 30 ± 15 nM. The molecule GTGTGGAAAATCTCTAGCAGT (ssDNA) [ss 21-GT] displayed a Kd in series [3] of 10.6 ± 10 nM.
